Measurements: article PMC7474647 (Proceedings of the National Academy of Sciences of the …, 2020)

Target: the molecule itself
Assay: ABEL trap-based single-molecule diffusometry

B1: alkaline phosphatase from bovine intestinal mucosa, labeled with JF646 (enzyme, UniProt P19111 20-506, looked up)
chain: LVPVEEEDPAFWNRQAAQALDVAKKLQPIQTAAKNVILFLGDGMGVPTVTATRILKGQMNGKLGPETPLAMDQFPYVALSKTYNVDRQVPDSAGTATAYLCGVKGNYRTIGVSAAARYNQCKTTRGNEVTSVMNRAKKAGKSVGVVTTTRVQHASPAGAYAHTVNRNWYSDADLPADAQMNGCQDIAAQLVNNMDIDVILGGGRKYMFPVGTPDPEYPDDASVNGVRKRKQNLVQAWQAKHQGAQYVWNRTALLQAADDSSVTHLMGLFEPADMKYNVQQDHTKDPTLQEMTEVALRVVSRNPRGFYLFVEGGRIDHGHHDDKAYMALTEAGMFDNAIAKANELTSELDTLILVTADHSHVFSFGGYTLRGTSIFGLAPSKALDSKSYTSILYGNGPGYALGGGSRPDVNDSTSEDPSYQQQAAVPQASETHGGEDVAVFARGPQAHLVHGVEEETFVAHIMAFAGCVEPYTDCNLPAPTTATSIPD
modifications: JF646 dye, attached by amine-NHS chemistry (nonspecific labeling; one or two dyes per molecule seen)
stoichiometry N: 2
